In this assay the target is Tau-biotin monomer (human, UniProt P10636-8 1-441, biotin (Sulfo-NHS-LC-Biotin)).

B1: Lag3 (lymphocyte-activation gene 3), on transfected SH-SY5Y cells (receptor)
chain: GPGKELPVVWAQEGAPVHLPCSLKSPNLDPNFLRRGGVIWQHQPDSGQPTPIPALDLHQGMPSPRQPAPGRYTVLSVAPGGLRSGRQPLHPHVQLEERGLQRGDFSLWLRPALRTDAGEYHATVRLPNRALSCSLRLRVGQASMIASPSGVLKLSDWVLLNCSFSRPDRPVSVHWFQGQNRVPVYNSPRHFLAETFLLLPQVSPLDSGTWGCVLTYRDGFNVSITYNLKVLGLEPVAPLTVYAAEGSRVELPCHLPPGVGTPSLLIAKWTPPGGGPELPVAGKSGNFTLHLEAVGLAQAGTYTCSIHLQGQQLNATVTLAVITVTPKSFGLPGSRGKLLCEVTPASGKERFVWRPLNNLSRSCPGPVLEIQEARLLAERWQCQLYEGQRLLGATVYAAESSSGAHSARRISGDLKGGHLVLVLILGALSLFLLVAGAFGFHWWRKQLLLRRFSALEHGIQPFPAQRKIEELERELETEMGQEPEPEPEPQLEPEPRQL
A word on the Kd: it is a measure of binding affinity in units of concentration. Low readings indicate a tighter complex, high ones a looser complex. Molecule B1 came in with a Kd above 2000 nM.
